According to paper PMC4508888:

B1: EGFP-Myo1b (natural protein)
chain: MAKKEVKSSLLDNMIGVGDTVLLEPLNEETFIDNLKKRFDHNEIYTYIGSVVISVNPYRSLPIYSPEKVEDYRNRNFYELSPHIFALSDEAYRSLRDQDKDQCILITGESGAGKTEASKLVMSYVAAVCGKGAEVNQVKEQLLQSTPVLEAFGNAKTVRNDNSSRFGKYMDIEFDFKGDPLGGVISNYLLEKSRVVKQPRGERNFHVFYQLLSGASEELLHKLKLERDFSRYNYLSLDSAKVNGVDDAANFRTVRNAMQIVGFSDPEAESVLEVVAAVLKLGNIEFKPESRMNGLDESKIKDKNELKEICELTSIDQVVLERAFSFRTVEAKQEKVSTTLNVAQAYYARDALAKNLYSRLFSWLVNRINESIKAQTKVRKKVMGVLDIYGFEIFEDNSFEQFIINYCNEKLQQIFIELTLKEEQEEYIREDIEWTHIDYFNNAIICDLIENNTNGILAMLDEECLRPGTVTDETFLEKLNQVCATHQHFESRMSKCSRFLNDTTLPHSCFRIQHYAGKVLYQVEGFVDKNNDLLYRDLSQAMWKAGHALIKSLFPEGNPAKVNLKRPPTAGSQFKASVATLMKNLQTKNPNYIRCIKPNDKKAAHIFSESLVCHQIRYLGLLENVRVRRAGYAFRQAYEPCLERYKMLCKQTWPHWKGPARSGVEVLFNELEIPVEEYSFGRSKIFIRNPRTLFQLEDLRKQRLEDLATLIQKIYRGWKCRTHFLLMKRSQVVIAAWYRRYAQQKRYQQIKSSALVIQSYIRGWKARKILRELKHQKRCKEAATTIAAYWHGTQARKERRRLKDEARNKHAIAVIWAFWLGSKARRELKRLKEEARRKHAVAVIWAYWLGLKVRREYRKFFRANAGKKIYEFTLQRIVQKYLLEMKNKMPSLSPIDKNWPSRPYLFLDSTHKELKRIFHLWRCKKYRDQFTDQQKLIYEEKLEASELFKDKKALYPSSVGQPFQGAYLEINKNPKYKKLKDAIEEKIIIAEVVNKINRANGKSTSRIFLLTNNNLLLADQKSGQIKSEVPLVDVTKVSMSSQNDGFFAVHLKEGSEAASKGDFLFSSDHLIEMATKLYRTTLSQTKQKLNIEISDEFLVQFRQDKVCVKFIQGNQKNGSVPTCKRKNNRLLEVAVP

Legend:
Assay in all cases: co-IP
[1] = molecular target: EGFP-Myo1b (rat) (UniProt Q05096)
[2] = molecular target: EGFP-Myo1b motor (rat)
[3] = molecular target: EGFP-Myo1b-Tail (rat)
[4] = molecular target: Flag-EphB2-KD (UniProt P54763)

| percent of Flag-EphB2 co-precipitated with EGFP-Myo1b after genistein treatment [1] [%] | percent of Flag-EphB2 pulled down against EGFP-Myo1b [2] [%] | fold of Flag-EphB2 pulled down against EGFP-Myo1b [3] [fold] | percent of EGFP-Myo1b co-precipitated against Flag-EphB2 [4] [%] | Molecule |
| --- | --- | --- | --- | --- |
| 29 | 50 | > 2 |  | Flag-EphB2 (from UniProt P54763 19-986) (receptor) |
|  |  |  | 16 | B1 |
